From US20100158904A1 (GLENMARK PHARMACEUTICALS S A, published 2010)
Blank lines part the entries; values can stand above or below the molecule they belong to.

Experiments:
[1] = molecular target: human α2β1 integrin (VLA-2) expressed on human cancer cell lines (human) (UniProt P17301); test: flow cytometry, hIgG4-FITC control on HT-1080 cells
[2] = molecular target: human α2β1 integrin (VLA-2) expressed on human cancer cell lines (human) (UniProt P17301); test: flow cytometry, 10 µg/mL hIgG4-FITC control on AsPC-1 cells
[3] = molecular target: human α2β1 integrin (VLA-2) expressed on human cancer cell lines (human) (UniProt P17301); test: flow cytometry, 10 µg/mL hIgG4-FITC control on HPAF-II cells
[4] = molecular target: human α2β1 integrin (VLA-2) expressed on human cancer cell lines (human) (UniProt P17301); test: flow cytometry, 10 µg/mL hIgG4-FITC control on SK-BR-3 cells
[5] = molecular target: T1, human α2β1 integrin (VLA-2) expressed on human cancer cell lines (human, UniProt P17301 30-1181; P05556 21-798); test: inhibition of adhesion of HT-1080 cells to human collagen type I, mean of 3
T1 construct: also called α2 integrin; CD49b (α2 subunit)
Experimental: (§1) Ninety six well ELISA plates (black cliniplate, Thermo Firsher scientific, cat n^o 9502867) were coated with 100 μl of human collagen type I (SIGMA, cat n^o C7774) at 50 μg/mL in Acetic Acid 0.02N or in PBS. Collagen was either diluted in acetic acid and incubated for 1 hour at 37° C. or diluted in PBS and incubated overnight at 4° C. Plates were blocked with 150 μl of PBS supplemented with 0.1% BSA or 1% BSA (Sigma, cat n^o A3059). Cells were first labelled with CFSE (Invitrogen cat n^o C34554) into serum free DMEM medium (PAA, cat n^o E15-005). Three μl of a 15 mM CFSE solution was added to 5 ml cells at a concentration between 1×10⁶ cells/ml to 0.6×10⁶ cells/ml. Cells were incubated with CFSE for 10 minutes at 37° C. and CFSE excess was removed by centrifugation of the cells at 900 rpm for 3 min. CFSE-labelled cells were resuspended at a concentration between 0.6×10⁶ to 1×10⁶ cells/ml in DMEM supplemented with 0.1% BSA. […] Wells in the plates were filled with PBS and fluorescence with excitation at 498 nm and emission at 525 nm was measured using Synerg HT2 fluorometer. Data were analyzed using PRISM software. Activity of the anti-VLA-2 antibody was expressed as EC₅₀ which is defined as the concentration of antibody that provokes a response halfway between the baseline and the maximum response. […]

[6] = molecular target: T1, human α2β1 integrin (VLA-2) expressed …; test: inhibition of cell adhesion to human collagen type I; ratio between two cell lines
Experimental: as §1

[7] = molecular target: T1, human α2β1 integrin (VLA-2) expressed …; test: inhibition of adhesion of AsPC-1 cells to human collagen type I, mean of 2 experiments
Experimental: as §1

[8] = molecular target: T1, human α2β1 integrin (VLA-2) expressed …; test: inhibition of adhesion of HPAF-II cells to human collagen type I, mean of 2 experiments
Experimental: as §1

[9] = molecular target: T1, human α2β1 integrin (VLA-2) expressed …; test: inhibition of adhesion of SK-BR-3 cells to human collagen type I, mean of 2 experiments
Experimental: as §1

[10] = molecular target: T1, human α2β1 integrin (VLA-2) expressed …; test: inhibition of adhesion of CFSE-labelled AsPC-1 cells to human collagen type I, experiment I
Experimental: as §1

[11] = molecular target: T1, human α2β1 integrin (VLA-2) expressed …; test: inhibition of adhesion of CFSE-labelled AsPC-1 cells to human collagen type I, experiment II
Experimental: as §1

[12] = molecular target: T1, human α2β1 integrin (VLA-2) expressed …; test: inhibition of adhesion of CFSE-labelled HPAF-II cells to human collagen type I, experiment I
Experimental: as §1

[13] = molecular target: T1, human α2β1 integrin (VLA-2) expressed …; test: inhibition of adhesion of CFSE-labelled SK-BR-3 cells to human collagen type I, experiment I
Experimental: as §1

[14] = molecular target: T1, human α2β1 integrin (VLA-2) expressed …; test: inhibition of adhesion of CFSE-labelled HPAF-II cells to human collagen type I, experiment II
Experimental: as §1

[15] = molecular target: T1, human α2β1 integrin (VLA-2) expressed …; test: inhibition of adhesion of CFSE-labelled SK-BR-3 cells to human collagen type I, experiment II
Experimental: as §1

T1 sequence (P17301 30-1181 E534K limits assumed, chain 1 of 2): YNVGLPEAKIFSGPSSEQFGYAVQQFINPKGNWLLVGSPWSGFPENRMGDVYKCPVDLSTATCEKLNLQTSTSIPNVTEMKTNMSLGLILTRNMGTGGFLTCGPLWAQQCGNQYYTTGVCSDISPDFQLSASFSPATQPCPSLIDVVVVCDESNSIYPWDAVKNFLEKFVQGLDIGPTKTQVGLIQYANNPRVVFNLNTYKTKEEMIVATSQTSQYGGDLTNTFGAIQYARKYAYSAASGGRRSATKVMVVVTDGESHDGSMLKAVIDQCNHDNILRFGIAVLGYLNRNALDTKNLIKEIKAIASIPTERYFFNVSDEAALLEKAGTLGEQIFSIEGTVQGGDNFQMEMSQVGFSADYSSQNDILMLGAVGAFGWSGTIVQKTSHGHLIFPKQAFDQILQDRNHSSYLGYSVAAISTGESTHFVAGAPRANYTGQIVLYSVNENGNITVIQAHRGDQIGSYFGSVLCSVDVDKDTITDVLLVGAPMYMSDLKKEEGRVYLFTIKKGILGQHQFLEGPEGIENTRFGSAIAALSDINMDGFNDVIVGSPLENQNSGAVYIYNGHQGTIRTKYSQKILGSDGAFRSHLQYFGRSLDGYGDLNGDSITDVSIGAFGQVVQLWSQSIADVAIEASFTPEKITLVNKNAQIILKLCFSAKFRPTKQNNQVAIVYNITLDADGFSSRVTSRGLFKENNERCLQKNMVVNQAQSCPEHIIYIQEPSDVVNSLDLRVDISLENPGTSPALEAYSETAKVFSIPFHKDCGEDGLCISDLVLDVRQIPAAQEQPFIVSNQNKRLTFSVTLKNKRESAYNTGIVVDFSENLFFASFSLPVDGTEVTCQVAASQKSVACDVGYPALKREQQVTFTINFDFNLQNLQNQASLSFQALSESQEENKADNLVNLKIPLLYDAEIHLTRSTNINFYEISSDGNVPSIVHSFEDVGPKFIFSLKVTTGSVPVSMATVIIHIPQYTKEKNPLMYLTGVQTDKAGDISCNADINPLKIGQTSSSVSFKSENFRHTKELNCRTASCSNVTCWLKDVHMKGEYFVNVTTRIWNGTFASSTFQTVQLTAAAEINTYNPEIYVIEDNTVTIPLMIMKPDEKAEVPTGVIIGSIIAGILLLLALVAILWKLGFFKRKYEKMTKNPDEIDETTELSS
T1 sequence (P05556 21-798 limits assumed, chain 2 of 2): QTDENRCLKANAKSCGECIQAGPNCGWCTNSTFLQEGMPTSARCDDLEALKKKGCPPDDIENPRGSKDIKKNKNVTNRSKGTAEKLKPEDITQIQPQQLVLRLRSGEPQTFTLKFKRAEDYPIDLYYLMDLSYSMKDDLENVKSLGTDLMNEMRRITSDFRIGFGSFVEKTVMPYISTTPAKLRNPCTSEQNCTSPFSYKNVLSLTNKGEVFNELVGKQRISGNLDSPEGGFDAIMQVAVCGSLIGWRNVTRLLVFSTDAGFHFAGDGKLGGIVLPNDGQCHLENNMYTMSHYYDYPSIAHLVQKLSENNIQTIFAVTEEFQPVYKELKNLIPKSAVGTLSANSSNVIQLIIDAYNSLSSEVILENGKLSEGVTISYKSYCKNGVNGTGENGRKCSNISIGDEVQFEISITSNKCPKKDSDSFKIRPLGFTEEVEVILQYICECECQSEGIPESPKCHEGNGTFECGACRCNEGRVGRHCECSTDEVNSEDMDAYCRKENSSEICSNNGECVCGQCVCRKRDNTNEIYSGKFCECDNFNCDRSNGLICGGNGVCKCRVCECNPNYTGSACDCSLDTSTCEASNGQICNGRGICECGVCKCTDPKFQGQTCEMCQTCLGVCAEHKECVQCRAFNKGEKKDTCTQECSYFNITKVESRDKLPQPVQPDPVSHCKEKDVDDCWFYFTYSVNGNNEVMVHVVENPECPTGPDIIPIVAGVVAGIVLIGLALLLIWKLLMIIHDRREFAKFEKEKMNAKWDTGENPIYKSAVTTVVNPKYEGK
human α2β1 integrin (VLA-2) expressed on human cancer cell lines (human), sequence (P17301 30-1181 E534K limits assumed, chain 1 of 2): as the sequence (P17301 30-1181 E534K limits assumed, chain 1 of 2) above
human α2β1 integrin (VLA-2) expressed on human cancer cell lines (human), sequence (chain, as listed by the source limits assumed, chain 2 of 2): as the sequence (P05556 21-798 limits assumed, chain 2 of 2) above

MFI [1]: 4.9
MFI [2]: 6.8
MFI [3]: 14.9
MFI [4]: 3.4
Molecule: hIgG4 isotype control antibody

EC50 [5]: 0.076 µg/mL
fold EC50 on HPAF-II cells against EC50 on AsPC-1 cells [6]: 3.9 fold
EC50 [7]: 0.041 µg/mL
EC50 [8]: 0.163 µg/mL
EC50 [9]: 0.036 µg/mL
EC50 [10]: 0.047 µg/mL
EC50 [11]: 0.036 µg/mL
EC50 [12]: 0.224 µg/mL
EC50 [13]: 0.039 µg/mL
EC50 [14]: 0.103 µg/mL
EC50 [15]: 0.032 µg/mL
B1: GBR500, humanized anti-human α2 integrin antibody (antibody, human IgG4, kappa, V domains shown)
VH: QVQLQESGPGLVKPSETLSLTCTVSGFSLTNYGIHWIRQPPGKGLEWLGVIWARGFTNYNSALMSRLTISKDNSKNQVSLKLSSVTAADTAVYYCARANDGVYYAMDYWGQGTLVTVSS
VL: DFVMTQSPAFLSVTPGEKVTITCSAQSSVNYIHWYQQKPDQAPKKLIYDTSKLASGVPSRFSGSGSGTDYTFTISSLEAEDAATYYCQQWTTNPLTFGQGTKVEIKR
notes: Its isotype-matched control is a humanized IgG4; also called GBR500-FITC; Biotin-GBR500

EC50 [5]: 0.097 µg/mL
fold EC50 on HPAF-II cells against EC50 on AsPC-1 cells [6]: 3.6 fold
EC50 [7]: 0.08 µg/mL
EC50 [8]: 0.29 µg/mL
EC50 [10]: 0.074 µg/mL
EC50 [11]: 0.087 µg/mL
EC50 [12]: 0.326 µg/mL
EC50 [14]: 0.253 µg/mL
B2: TMC-2206, mouse anti-human α2 integrin antibody (BHA2.1 hybridoma) (antibody, V domains shown)
VH: QVQLKESGPGLVAPSQSLSITCTVSGFSLTNYGIHWVRQPPGKGLEWLGVIWARGFTNYNSALMSRLIITKDNSQSQVFLKMNSLQPDDSATYFCARANDGVYYAMDYWGQGTSVTVSS
VL: QFVLTQSPAFLSASPGEKVTMTCSANSSVNYIHWYQQKSGTSPKKWIYDTSKLASGVPVRFSGSGSGTSYSLTISSMETEDAATYYCQQWTTNPLTFGAGTRVELK
notes: Murine monoclonal antibody (Glenmark/Millipore, cat. MAB1998); also called MAB1998
